Measurements reported in US20240209095A1 (DEVELOPMENT CENTER FOR BIOTECHNOLOGY, published 2024).
Positions count from the first letter of the chain named.

B1: 3C3 humanized antibody HuB2Hu2 (antibody, V domains shown)
VH: EVQLQESGPGLVKPSQTLSLTCTVSGYSITSDYWDWIRKPPGKGLEYMGYISYTGSTYYNPSLRSRITISRDTSKNQYSLKLSSVTAADTAVYYCARRGGWLSPFVYWGQGTLVTVSS
VL: DIVMTQTPLSLSVTPGQPASISCKSRQSLLFSSNQKNSLAWYLQKPGQSPQLLIYWASTRESGVPDRFSGSGSGTDFTLKISRVEAEDVGVYYCQQYYTYPFTFGQGTKLEIK
notes: Human IgG, kappa, from pTCAED vectors; also called 3C3-HuB2Hu2; 3C3 HuB2Hu2
B2: 3C3 humanized antibody HuB2Hu (antibody, V domains shown)
VH: B1 VH
VL: DIQMTQSPSSLSASVGDRVTITCKSRQSLLFSSNQKNSLAWYQQKPGKAPKLLIYWASTRESGVPSRFSGSGSGTDFTLTISSLQPEDFATYYCQQYYTYPFTFGQGTKLEIK
notes: Human IgG, kappa, from pTCAED vectors; also called 3C3-HuB2Hu; 3C3 HuB2Hu
B3: 3C3 humanized antibody HuB2Hu0 (antibody, V domains shown)
VH: B1 VH
VL: DIVMTQSPDSLAVSLGERATINCKSRQSLLFSSNQKNSLAWYQQKPGQPPKLLIYWASTRESGVPDRFSGSGSGTDFTLTISSLQAEDVAVYYCQQYYTYPFTFGQGTKLEIK
notes: Human IgG, kappa, from pTCAED vectors; also called 3C3-HuB2Hu0; 3C3 HuB2Hu0
B4: mouse hybridoma anti-human PD-L1 antibody 1G8 (antibody, V domains shown)
VH: QVQLQESGPGLAKPSQTLSLTCSVTGYSITSDYWNWIRKFPGNKLEFMGYISYTGSTYYNPSLKSRISITRDTSKNQYYLQLNSVTTEDTATYYCARRGEWLSPFAYWGQGTLVTVSA
VL: DIVMSQSPSSLGVSVGEKITMSCKSSQSLLYSSNQKNSLAWYQQKPGQSPKLLIYWASTRESGVPDRFTGSGSGTDFTLTISSVKSEDLAVYYCQQYYTYPFTFGAGTNLELK
notes: Mouse monoclonal antibody from hybridoma, detected with goat anti-mouse IgG; also called mAb 1G8; mouse clone 1G8
B5: mouse hybridoma anti-human PD-L1 antibody 3C3 (antibody, V domains shown)
VH: B4 VH with Q1E, A12T, N35D, F47Y, K64R, N83S, T87S, T90S, E100G, A106V
VL: B4 VL with I2T, K18R, I19V, M21L, S22T, S26R, Y31F, N109S
notes: Mouse monoclonal antibody from hybridoma, detected with goat anti-mouse IgG; also called mAb 3C3; mouse clone 3C3
B6: 3C3 heavy chain Hu-B1 / light chain Hu0 (antibody, V domains shown)
VH: B1 VH with K39Q, Y47W
VL: B3 VL
notes: Human IgG, kappa, from pTCAED vectors; tested as culture supernatant
B7: 3C3 heavy chain Hu-B1 / light chain Hu (antibody, V domains shown)
VH: B1 VH with K39Q, Y47W
VL: B2 VL
notes: as for B6
B8: 3C3 heavy chain Hu-B1 / light chain Hu2 (antibody, V domains shown)
VH: B1 VH with K39Q, Y47W
VL: B1 VL
notes: as for B6
B9: 3C3 humanized antibody HuHu0 (antibody, V domains shown)
VH: B1 VH with E1Q, K39Q, Y47W, M48I, I67V, R71V, Y78F
VL: B3 VL
notes: Human IgG, kappa, from pTCAED vectors; also called 3C3 heavy chain Hu / light chain Hu0
B10: 3C3 heavy chain Hu-B1 / light chain M (antibody, V domains shown)
VH: B1 VH with K39Q, Y47W
VL: B4 VL with I2T, K18R, I19V, M21L, S22T, S26R, Y31F, N109S
notes: as for B6
B11: mouse-human chimera 3C3 MM (antibody, V domains shown)
VH: B4 VH with Q1E, A12T, N35D, F47Y, K64R, N83S, T87S, T90S, E100G, A106V
VL: B4 VL with I2T, K18R, I19V, M21L, S22T, S26R, Y31F, N109S
notes: Variable regions in human chimera antibody expression vectors pTCAED heavy and light; human IgG, kappa (detected with anti-human Kappa); also called 3C3 heavy chain M / light chain M; chimera PD-L1
B12: 3C3 heavy chain M / light chain Hu (antibody, V domains shown)
VH: B4 VH with Q1E, A12T, N35D, F47Y, K64R, N83S, T87S, T90S, E100G, A106V
VL: B2 VL
notes: as for B6
B13: 3C3 heavy chain M / light chain Hu0 (antibody, V domains shown)
VH: B4 VH with Q1E, A12T, N35D, F47Y, K64R, N83S, T87S, T90S, E100G, A106V
VL: B3 VL
notes: as for B6
B14: 3C3 heavy chain M / light chain Hu2 (antibody, V domains shown)
VH: B4 VH with Q1E, A12T, N35D, F47Y, K64R, N83S, T87S, T90S, E100G, A106V
VL: B1 VL
notes: as for B6
B15: 3C3 heavy chain Hu / light chain M (antibody, V domains shown)
VH: B1 VH with E1Q, K39Q, Y47W, M48I, I67V, R71V, Y78F
VL: B4 VL with I2T, K18R, I19V, M21L, S22T, S26R, Y31F, N109S
notes: as for B6
B16: 3C3 heavy chain Hu-B2 / light chain M (antibody, V domains shown)
VH: B1 VH
VL: B4 VL with I2T, K18R, I19V, M21L, S22T, S26R, Y31F, N109S
notes: as for B6
B17: 1G8 humanized antibody HuHu (antibody, V domains shown)
VH: QVQLQESGPGLVKPSQTLSLTCTVSGYSITSDYWNWIRQPPGKGLEWIGYISYTGSTYYNPSLKSRVTISVDTSKNQFSLKLSSVTAADTAVYYCARRGEWLSPFAYWGQGTLVTVSS
VL: B2 VL with R26S, F31Y
notes: Human IgG, kappa, from pTCAED vectors; also called 1G8 HuHu
B18: 1G8 humanized antibody HuHu0 (antibody, V domains shown)
VH: B17 VH
VL: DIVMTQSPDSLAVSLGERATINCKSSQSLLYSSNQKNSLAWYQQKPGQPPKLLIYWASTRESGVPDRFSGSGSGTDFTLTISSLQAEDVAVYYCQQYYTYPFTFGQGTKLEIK
notes: Human IgG, kappa, from pTCAED vectors; also called 1G8 HuHu0
B19: 1G8 humanized antibody HuB2Hu (antibody, V domains shown)
VH: B1 VH with D35N, R64K, G100E, V106A
VL: B2 VL with R26S, F31Y
notes: Human IgG, kappa, from pTCAED vectors; also called 1G8 HuB2Hu
B20: 1G8 humanized antibody HuB2Hu0 (antibody, V domains shown)
VH: B1 VH with D35N, R64K, G100E, V106A
VL: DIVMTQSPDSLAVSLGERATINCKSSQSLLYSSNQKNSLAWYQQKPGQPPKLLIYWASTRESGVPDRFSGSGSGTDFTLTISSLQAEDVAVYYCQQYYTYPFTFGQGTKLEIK
notes: Human IgG, kappa, from pTCAED vectors; also called 1G8 HuB2Hu0
B21: 1G8 humanized antibody HuHu2 (antibody, V domains shown)
VH: B17 VH
VL: B1 VL with R26S, F31Y
notes: Human IgG, kappa, from pTCAED vectors; also called 1G8 HuHu2
B22: 1G8 humanized antibody HuB2Hu2 (antibody, V domains shown)
VH: B1 VH with D35N, R64K, G100E, V106A
VL: B1 VL with R26S, F31Y
notes: Human IgG, kappa, from pTCAED vectors; also called 1G8 HuB2Hu2

biological target: T1, PDL1-hFc (UniProt Q9NZQ7 19-238); test: ELISA titration on PDL1-hFc, KD compared with parental 3C3 (FIG. 10)
T1 construct: Coated at 1 µg/ml in the ELISAs of the chimeric and humanized antibodies; construct not described
Method: (§1) ELISA plates were coating with PDL1-hFc 1 ug/ml and blocked by 5% milk PBS, then add assay antibodies form 45 nM to 2.7×10⁻³ nM dilute (4× fold dilution). Assay will measured by add goat anti-human KAPPA HRP IgG 1:4000 and binding curve and KD was determined by GraphPad Prism software using One site-specific binding for none linear fit methods.

T1 sequence (Q9NZQ7 19-238): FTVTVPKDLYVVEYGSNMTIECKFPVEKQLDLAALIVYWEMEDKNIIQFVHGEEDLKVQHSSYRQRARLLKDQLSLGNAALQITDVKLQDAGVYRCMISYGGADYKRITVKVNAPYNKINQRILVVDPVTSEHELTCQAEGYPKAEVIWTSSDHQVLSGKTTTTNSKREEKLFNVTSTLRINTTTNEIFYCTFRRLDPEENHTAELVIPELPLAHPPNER

| fold affinity loss against parental mouse clone 3C3 | Binder |
| --- | --- |
| < 2 fold | B1 |
| < 2 fold | B2 |
| < 2 fold | B3 |

biological target: T2, human PD-L1 expressed on cells (HCC827 cells; PD-L1 aAPC/CHO-K1 cells) (human, UniProt Q9NZQ7 19-290); test: cell-based or functional assay
T2 sequence (Q9NZQ7 19-290): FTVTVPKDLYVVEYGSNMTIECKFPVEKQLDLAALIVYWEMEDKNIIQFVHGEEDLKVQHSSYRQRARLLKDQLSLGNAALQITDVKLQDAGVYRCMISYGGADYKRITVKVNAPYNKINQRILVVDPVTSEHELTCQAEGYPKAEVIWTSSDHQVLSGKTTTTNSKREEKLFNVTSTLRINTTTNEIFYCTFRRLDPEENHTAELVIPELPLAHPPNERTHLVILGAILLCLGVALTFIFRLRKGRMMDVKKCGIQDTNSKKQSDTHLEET

| PD1/PD-L1 Blockade Reporter Assay EC50 | Binder |
| --- | --- |
| 620 pM | B4 |
| 582 pM | B5 |

biological target: T3, human PD-L1 (coated on ELISA plate) (human, UniProt Q9NZQ7 19-238, limits assumed); test: ELISA, PD-L1 coated 0.1 µg/well, goat anti-mouse IgG-HRP
T3 construct: construct not described; also called CD274; B7 homolog 1
Method: Briefly, PD-L1 was coated on a 96-well ELISA plate (0.1 μg/well). After binding of anti-PD-L1 antibodies, a goat anti mouse IgG conjugated with horse radish peroxidase (HRP) was used as a second antibody and 3,3′,5,5′-Tetramethylbenzidine (TMB) was used as a substrate to assess the antibody-PD-L1 bindings. The OD405 was read to calculate the activities.

T3 sequence (Q9NZQ7 19-238 limits assumed): as the sequence (Q9NZQ7 19-238) above

| Kd | Binder |
| --- | --- |
| 43.5 pM | B4 |
| 35.6 pM | B5 |

biological target: T1, PDL1-hFc; test: ELISA, PDL1-hFc coated 1 µg/ml, antibody supernatant at 300 ng/ml, anti-human Kappa HRP
Method: The binding activity of humanized antibodies could be efficiently compared by all combination of heavy chains and light chains using mini scale antibody expression. The concentration of antibodies in culture supernatant was determent by anti-human IgG ELISA. For PDL1 ELISA, plates were coating with PDL1-hFc 1 μg/ml and blocked by 5% milk PBS. Assay antibodies were adjusted to 300 ng/ml, 100 μl/well. Anti-PDL1 signals were measured by secondary goat anti-human Kappa HRP IgG 1:4000 and color developed by TMB substrates (KPL). Optical absorption value was measured at OD450-655 nm by Bio-Rad ELISA reader.

| OD450-650 nM, 300 ng/ml PDL1 binding | Binder |
| --- | --- |
| 0.539 OD | B6 |
| 0.455 OD | B7 |
| 0.349 OD | B8 |
| 1.05 OD | B1 |
| 1.35 OD | B2 |
| 0.15 OD | B9 |
| 1.13 OD | B3 |
| 0.61 OD | B10 |
| 1.52 OD | B11 |
| 1.85 OD | B12 |
| 1.58 OD | B13 |
| 1.55 OD | B14 |
| 0.25 OD | B15 |
| 1.2 OD | B16 |

biological target: T2, human PD-L1 expressed on cells (HCC827 …); test: cell-based or functional assay; remark: another data set of the same source

| Luc repoter EC50 | Binder |
| --- | --- |
| 620 pM | B4 |
| 580 pM | B5 |

biological target: T1, PDL1-hFc; test: ELISA titration on PDL1-hFc 1 ug/ml, 45 nM to 2.7×10^-3 nM, one site-specific binding fit
Method: as §1

| Kd | Binder |
| --- | --- |
| 3240 pM | B17 |
| 101 pM | B1 |
| 93.6 pM | B2 |
| 3990 pM | B18 |
| 248 pM | B19 |
| 108 pM | B3 |
| 238 pM | B20 |
| 9680 pM | B21 |
| 108 pM | B22 |

biological target: T2, human PD-L1 expressed on cells (HCC827 …); test: cell-based or functional assay; remark: another data set of the same source

| 3C3 humanized antibodies Blockade Reporter Assay EC50 | Binder |
| --- | --- |
| 409 pM | B1 |
| 441 pM | B2 |
| 477 pM | B3 |
